Reference: the supplement of paper PMC12764529
± gives the half width of the 95% confidence interval.

Assays:
[1] = folding stability dG unfold from trypsin proteolysis; higher = more stable
Outline: (§1)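 How resistant each design was to proteolysis was captured as K50, inferred by Bayesian fitting of sequencing counts. Unfolding free energy was then derived relative to a sequence-predicted unfolded-state K50 and a shared folded-state K50, per protease or combined. Digestion used trypsin and chymotrypsin at 11 threefold-diluted concentrations plus a no-protease condition, on mini-proteins under 80 residues without cysteine in a PA-tagged cDNA display construct. Designs were kept only when AlphaFold2 dimer inter-PAE was above 15.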

[2] = folding stability dG unfold (combined trypsin and chymotrypsin); higher = more stable
Outline: as §1

[3] = folding stability dG unfold from chymotrypsin proteolysis; higher = more stable
Outline: as §1

Sequence | folding stability dG unfold [1] [kcal/mol] | folding stability dG unfold [2] [kcal/mol] | folding stability dG unfold [3] [kcal/mol]
SPEKEIKVKYELPEPGSGPVKVEATFTINPKTGEVKMPVTLTRPGSSSQVNLPEELLKELKNKVLEELGKSA [r9_1136_JUSTAS] | -0.621 ± 0.29 | 0.442 ± 0.083 | 0.795 ± 0.089
SAGMVITETEELPDRTITTVKYSDGKVVIETLEYDPNSNVVTKTVTTIDLSNPSVSKTTTTVEPDPAPSAGG [r19_102_JUSTAS] | 1.15 ± 0.099 | 1.62 ± 0.092 | 1.81 ± 0.063
SAGGSAGGSAGGVTIVIGTDKDIPAEVIEKEVADELLKAGIPPDVKVNVVVVPIDPDALSAGGSAGGSAGGS [r10_746_TrMRF] | 1.1 ± 0.042 | 1.11 ± 0.1 | 1.17 ± 0.087
SAGGSAGGSAGMTAKIVERRVLPGDGYLLLVEHPDGSRSAIVVPPELLENLDISDTVEFDSAGGSAGGSAGG [r11_943_TrMRF] | 0.576 ± 0.038 | 0.598 ± 0.064 | 0.591 ± 0.026
SAGGSAGGMEEVLALLKELGLEVKSVDIKSPDKVIVYIKPKDEKKLEELKKAVPKSLVDEIGLESAGGSAGG [r6_84_JUSTAS] | -0.0936 ± 0.083 | 0.275 ± 0.13 | 0.455 ± 0.15
SAGMKPGETITIENLPEGAIIYNKNGEKVEKVKEVKVTVEDGKITIEVKLEDGSTKTFTVPLEDLKIVPSAG [r5_850_TrROS_Hall] | 1.61 ± 0.12 | 2.31 ± 0.14 | 3.05 ± 0.058
SAGEVAPEEIRKIAEEIAKKLGLKNVKVEVSRDEETGEITVKIEVDIPESKKEKKEELEKAIKEKLGLKSAG [r5_9_JUSTAS] | 1.97 ± 0.084 | 2.7 ± 0.17 | 2.96 ± 0.094
SAGGMLIVRITVDLTFPVIHPDNRPSLVSVPLPITLPFSTPEEARAFAEALSKLFDAPVSLEVLPPDGSAGG [r13_320_TrMRF] | 3.62 ± 0.13 | 4.16 ± 0.12 | 4.4 ± 0.094
SAGGSAGSMPVEVTVTITVKDKNGTVLGTFPIKITVTSEEELEAKIKELKEKLKKEGYIVEKVDVVSAGGSA [r15_1054_JUSTAS] | 3.85 ± 0.17 | 3.24 ± 0.091 | 2.65 ± 0.041
SAGGEPLFGGSFSAEPYRTADGRLVYIVPEVTLPNGRKARAAVIYDPSTGRPIVVLYLGDKPIVLDASAGGS [r16_766_TrMRF] | 1.889 ± 0.017 | 2.24 ± 0.026 | 2.41 ± 0.039
SNIEIEPYQPGEPREYEIPPGKLKITFYQDPGPMYIRVKDPGNGEPVEIPIPMERGDWDNAAKKILKAIKSA [r9_982_TrROS] | 0.81 ± 0.14 | 0.802 ± 0.32 | 0.454 ± 0.27
SAGMTVTLPGDKSYTVTVKYTLYDADGKKLGEKTYTKTVTVAPNSTVTINIPNTYPNTVVTEVTVTPESAGG [r19_295_JUSTAS] | 3.91 ± 0.35 | 4.32 ± 0.13 | 4.38 ± 0.092
SAGGMTEEEAKELAKELAEKYAEEKGIEEIELKIESVEKEGDKFTVKVKLTFPNEEKTITITIPKDLISAGG [r13_611_JUSTAS] | 3.34 ± 0.21 | 3.24 ± 0.11 | 3.21 ± 0.19
SAGGSAGGSAGPMYIITHTSPNEPIEFIFPPDDAEEFLKKLKLPPNMNIKVEPIDPDDMKSAGGSAGGSAGG [r17_395_TrROS] | 0.0355 ± 0.07 | 0.367 ± 0.18 | 0.715 ± 0.21
SAGGSAGGSAGGSSTILIPSSTSEEYAESLAKELKKKGNVKTSFDPSTGVLVLTLPGGSSSAGGSAGGSAGG [r7_219_JUSTAS] | -0.962 ± 0.59 | -0.17 ± 0.21 | 0.0516 ± 0.2
SAGGSASPVTVTYTDPNSTVLESVYTPSSGIVYVKYKVGDKWYLVTVKLDPSGSSVSSVTKEPLPPSAGGSA [r15_297_JUSTAS] | 1.55 ± 0.04 | 1.95 ± 0.043 | 2.13 ± 0.041
SAGGIKLPPWFKKLADILQEEGYKIRIEPVNGYWVIRVDGKVYPSPEDMEDNRDDPGVDRVIVIPFPSAGGS [r16_275_TrROS] | 2.78 ± 0.14 | 3.26 ± 0.15 | 3.45 ± 0.12
SSPVSFSTSTTSPPSPSSLPDGSTLSTTTTTYTAPDGSRYTVTSTTLTPPTGPATPVSTTTTSTGSSGPSSA [r9_394_JUSTAS] | 0.514 ± 0.018 | 0.872 ± 0.046 | 1.08 ± 0.043
SAIKGMPLEELAKHIENEMRKMHPNVKIKVEIVDVPPDYLVIEVEITVRHPNPGGQQVEFPMTIVIDLDSAG [r14_187_TrROS] | 1.81 ± 0.21 | 1.81 ± 0.21 | 1.5 ± 0.17
SAGGSAGGGMPMNIKVEEITSETIPPDVTVSETKVIDPSGKELKYLTVTTVRTDGKTSVLTVEGSAGGSAGG [r6_830_JUSTAS] | 0.201 ± 0.087 | -0.0271 ± 0.31 | -0.58 ± 0.56
SAGGSMTLRLPVPEDVEVVEVTAEVPDPETGKVYVFRSRARVVPYKDGVYLTVDLDPDGRSYGFDPSAGGSA [r2_123_TrMRF] | 1.07 ± 0.096 | 0.835 ± 0.059 | 0.56 ± 0.12
